Common to all, as to conditions: remark: other sources report otherwise
For assay [1], the target named is recombinant trimeric HA of H1N1 A/California/04/09 (Influenza A virus A/California/04/2009 (H1N1)).
Assay [2] deals with recombinant soluble homotrimeric HA of A/Japan/305/57 (H2N2) (Influenza A virus A/Japan/305/1957(H2N2)). Put plainly: HA microarray, BCC supernatant.
In assay [3] the target is recombinant soluble homotrimeric HA of A/Netherlands/219/03 (H7N7) (Influenza A virus A/Netherlands/219/03(H7N7)). As to the kind of experiment: HA microarray, BCC supernatant.
For assay [4], the target named is recombinant soluble homotrimeric HA of A/Solomon Islands/3/06 (H1N1) (Influenza A virus A/Solomon Islands/3/2006(H1N1)). As to the kind of experiment: HA microarray, BCC supernatant.
The target of assay [5] is recombinant soluble homotrimeric HA of A/Wisconsin/67/05 (H3N2) (Influenza A virus A/Wisconsin/67/2005(H3N2)). Put plainly: HA microarray, BCC supernatant.
The target in assay [6] is recombinant soluble homotrimeric HA of A/chicken/Vietnam/NCVD-016/08 (H5N1) (Influenza A virus A/chicken/Vietnam/NCVD-016/2008(H5N1)). As to the kind of experiment: HA microarray, BCC supernatant.
Assay [7] has as its target recombinant soluble homotrimeric HA of A/swine/Ontario/01911-2/99 (H4N6) (Influenza A virus A/Swine/Ontario/01911-2/99 (H4N6)). Put plainly: HA microarray, BCC supernatant.
Assay [8] addresses recombinant soluble homotrimeric HA, A/Japan/305/57 H2N2 (Influenza A virus A/Japan/305/1957(H2N2)). As to the kind of experiment: microarray, transfection SN IgG, trimeric HA.
Assay [9] has as its target recombinant soluble homotrimeric HA, A/Netherlands/219/03 H7N7 (Influenza A virus A/Netherlands/219/03(H7N7)). Put plainly: microarray, transfection SN IgG, trimeric HA.
The target in assay [10] is recombinant soluble homotrimeric HA, A/South Carolina/1/18 H1N1 (Influenza A virus A/South Carolina/1/18 (H1N1)). As to the kind of experiment: microarray, transfection SN IgG, trimeric HA.
In assay [11] the target is recombinant soluble homotrimeric HA, A/Wisconsin/67/05 H3N2 (Influenza A virus A/Wisconsin/67/2005(H3N2)). As to the kind of experiment: microarray, transfection SN IgG, trimeric HA.
In assay [12] the target is recombinant soluble homotrimeric HA, A/chicken/Vietnam/NCVD-016/08 H5N1 (Influenza A virus A/chicken/Vietnam/NCVD-016/2008(H5N1)). As to the kind of experiment: microarray, transfection SN IgG, trimeric HA.
The target of assay [13] is recombinant soluble homotrimeric HA, A/duck/Yangzhou/02/05 H8N4 (Influenza A virus A/duck/Yangzhou/02/2005(H8N4)). Put plainly: microarray, transfection SN IgG, trimeric HA.
For assay [14], the target named is recombinant soluble homotrimeric HA, A/northern shoveler/California/HKWF115/07 H6N4 (Influenza A virus A/northern shoveler/California/HKWF115/2007(H6N1)). Put plainly: microarray, transfection SN IgG, trimeric HA.
In assay [15] the target is recombinant homotrimeric HA A/Hong Kong/1073/99 H9N2 (Influenza A virus A/Hong Kong/1073/99 (H9N2)). As to the kind of experiment: protein microarray, purified IgG, trimeric HA.
Assay [16] has as its target recombinant homotrimeric HA A/Japan/305/57 H2N2 (Influenza A virus A/Japan/305/1957(H2N2)). Put plainly: protein microarray, purified IgG, trimeric HA.
Assay [17] has as its target recombinant homotrimeric HA A/Netherlands/219/03 H7N7 (Influenza A virus A/Netherlands/219/03(H7N7)). Put plainly: protein microarray, purified IgG, trimeric HA.
The target in assay [18] is recombinant homotrimeric HA A/Solomon Islands/3/06 H1N1 (Influenza A virus A/Solomon Islands/3/2006(H1N1)). As to the kind of experiment: protein microarray, purified IgG, trimeric HA.
Assay [19] deals with recombinant homotrimeric HA A/South Carolina/1/18 H1N1 (Influenza A virus A/South Carolina/1/18 (H1N1)). As to the kind of experiment: protein microarray, purified IgG, trimeric HA.
Assay [20] concerns the target recombinant homotrimeric HA A/Wisconsin/67/05 H3N2 (Influenza A virus A/Wisconsin/67/2005(H3N2)). As to the kind of experiment: protein microarray, purified IgG, trimeric HA.
In assay [21] the target is recombinant homotrimeric HA A/chicken/Vietnam/NCVD-016/08 H5N1 (Influenza A virus A/chicken/Vietnam/NCVD-016/2008(H5N1)). As to the kind of experiment: protein microarray, purified IgG, trimeric HA.
Assay [22] has as its target recombinant homotrimeric HA A/duck/Yangzhou/02/05 H8N4 (Influenza A virus A/duck/Yangzhou/02/2005(H8N4)). As to the kind of experiment: protein microarray, purified IgG, trimeric HA.
For assay [23], the target named is recombinant soluble homotrimeric HA of A/Anhui/1/05 (H5N1) (Influenza A virus A/Anhui/1/2005(H5N1)). As to the kind of experiment: HA microarray, BCC supernatant.
For assay [24], the target named is recombinant soluble homotrimeric HA of A/Egypt/3300-NAMRU3/08 (H5N1) (Influenza A virus A/Egypt/3300-NAMRU3/2008(H5N1)). As to the kind of experiment: HA microarray, BCC supernatant.
Assay [25] concerns the target recombinant soluble homotrimeric HA of A/Hong Kong/2108/03 (H9N2) (Influenza A virus A/HK/2108/2003(H9N2)). Put plainly: HA microarray, BCC supernatant.
The target in assay [26] is recombinant soluble homotrimeric HA of A/Indonesia/5/05 (H5N1) (Influenza A virus A/Indonesia/5/2005(H5N1)). As to the kind of experiment: HA microarray, BCC supernatant.
Assay [27] concerns the target recombinant soluble homotrimeric HA of A/northern shoveler/California/HKWF115/07 (H6) (Influenza A virus A/northern shoveler/California/HKWF115/2007(H6N1)). Put plainly: HA microarray, BCC supernatant.

B1: Fab fragment of TCN-530 (5248_H10a) (Fab, V domains shown)
VH: QVQLVQSGAEVRKPGSSVKVSCKASGGPFMSYAIGWVRQAPGQGLEWMGGINPVFGRPHYAQKFQGRVTIATDDSTKTSYMELSSLTSEDTGMYYCASRYSRSSPGTFESWGQGTLVTVSS
VL: EIVMTQFPATLSVSPGERVTLSCRASQSVSNNLAWYQQKPGQPPRLLIYDASTRATGVPAKFSGTGSGTEFTLSISSLQSEDFAVYYCQQYHNWPPSYSFGLGTKLEIK
Take B1: in [1], the dissociation constant (Kd) (commonly the equilibrium constant for the complex coming apart) turned out to be 0.562 nM; the koff (commonly a measure of how fast the partners let go of each other) was 0.000287 s⁻¹; the kon (as a rule, the second-order rate constant of association) was 511000 M⁻¹ s⁻¹.

B2: Fab fragment of TCN-534 (5249_B02) (Fab, V domains shown)
VH: QVQLVQSGAEVKKPGSSVKVSCRESGGTFNGYTITWVRQAPGQGLEWMGGIIPMMGTVNYAQKLQGRVTITTDYFTKTAYMDLNNLRSEDTAMYYCVKIRYTGQQLLWGQGTLVTVSS
VL: DIQMTQSPSTLSASIGDRVTITCRASQSIASWLAWYQQKPGKAPKLLIYEAVNLESGVPSRFSGSGSGTDFTLTISSLQPDDFATYFCQHYGTISQTFGGGTKVEIK
With B2, in assay [1], the Kd came to 0.104 nM, the koff was 5.96e-05 s⁻¹ and the kon amounted to 573000 M⁻¹ s⁻¹.

B3: Fab fragment of TCN-522 (3212_I12) (Fab, V domains shown)
VH: QVQLQQWGAGLLKPSETLSLTCTVSGGSLTDYSWNWIRQPPGKGLEWIGDTLHNGYTNYNPSLRGRVSISIDTSKNQVSLRLTSVTAADTALYYCARGSGGYGGFDYFGKLRTWDFWGQGTLVTVSS
VL: DIQLTQSPSSLSASVGDRVTITCRASQGIRNDLGWYQQKPGNAPKRLIFGASSLQSGVPSRFSGSGSGTEFTLTISSLQPEDFATYYCLQHNSYPYTFGQGTKLEIK
Consider B3, for which, in assay [1], the Kd is 0.55 nM, the koff is 3.8e-05 s⁻¹ and the kon was 69800 M⁻¹ s⁻¹.

B4: Fab fragment of TCN-535 (5246_P19) (Fab, V domains shown)
VH: QVQLVQSGSEVKKPGTSVKVSCTASGSVFTNYGISWVRQAPGQGLEWMGGIIPLFGAAKYAQKFQGRVTITADESTKTVYMELSRLTSKDTAIYFCAKAPRVYEYYFDQWGQGTPVTVSS
VL: EIVLTQSPGTLSLSPGERATLSCRASQSVSSSQLAWYQQKPGQAPRLIIYGASTRATGIPDRFSGSGSGTDFTLTIGRLEPEDFAVFFCQQYSTSPPTFGQGTKVDFK
On to B4, for which, in [1], the Kd worked out at 0.165 nM, the koff amounted to 0.000163 s⁻¹ and the kon is 987000 M⁻¹ s⁻¹.

B5: TCN-554 (5277_M05) (antibody, V domains shown)
VH: QVQLVQSGADLKKPGASVKVSCKASGYTFTDYYIHWVRQAPGQGLEWMGWINPESGDTKYAQKFQGRVTMTRDTSITTAYMELGRLRSDDTAVYYCARDVSTTWSWFAPWGQGTLVTVSS
VL: DIVMTQSPDSLAVSLGERATINCRSSQSIFHNSNNENYLAWYQQKPGQPPKLLIYWASTRESGVPDRFSGSGSGTDFTLTISSLQAEDVAVYFCQQYYNAPLTFGGGTKVEIK
Take B5: the Trimeric HA Binding: RLU in assay [2] came to 328 RLU; in [3] it was 610 RLU; in [4] it was 115 RLU; in [5], 46500 RLU; in assay [6] it was 250 RLU; in assay [7] it was 78 RLU. Besides, the Trimeric HA Binding: RLU in assay [8] worked out at 2620 RLU; in [9], 4520 RLU; in assay [10], 1260 RLU; in [11] it was 25300 RLU; in assay [12] it was 2710 RLU; in assay [13], 5810 RLU. In addition, the Trimeric HA Binding: RLU in assay [14] worked out at 3350 RLU; in assay [15] it was 539 RLU; in assay [16] it was 705 RLU; in [17] it was 342 RLU; in [18], 1540 RLU; in assay [19], 166 RLU. Also, the Trimeric HA Binding: RLU in assay [20] was 27100 RLU; in [21] it was 544 RLU; in assay [22] it was 386 RLU.

B6: TCN-521 (3280_D18) (antibody, V domains shown)
VH: EVQLVQSGGGLVQPGGSLRLACVVSGFTVTSNYITWVRQAPGKGLEWVSVIYSHGRAYYSASVNGRFTISRHTSKNTVYLEMNSLRPEDTAVYYCAGGGLVGGYDEYFFDYWGQGTLATVSS
VL: ETVLTQSPGTLSLTPGERATLSCRVGQSVSGSHLAWYQQKPGQAPRLLIYGASSRATGIPDRFGGSVSGTDFTLTISRLEPEDSAVYYCQQYGDSRYTFGQGTKLEIK
Turning to B6, the Trimeric HA Binding: RLU in assay [23] amounted to 487 RLU; in assay [24], 47900 RLU; in [25], 93 RLU; in assay [26], 31500 RLU; in assay [2] it was 6730 RLU; in assay [3], 2500 RLU. Also, the Trimeric HA Binding: RLU in [4] worked out at 39600 RLU; in [6], 32400 RLU; in assay [27], 48000 RLU.

B7: Fab fragment of TCN-523 (5248_A17) (Fab, V domains shown)
VH: QVQLVQSGAEVKKPGSSVKVSCKASGGSFSNYAFSWVRQAPGQGLEWMGGTIPLLGTTNYAQKFQGRVTISADQFTSTAYMELGSLRSEDTAVYYCTRRKMTTAFDSWGQGTLVTVSS
VL: QPVLTQPPSASASLGASVTLTCTLSSAYSNYKVDWYQQRPGKGPRFVMRVGTGGIVGSKGDGIPDRFSVLGSGLNRYLTIKNIQEEDESDYHCGADHGSGSNFVSPYVFGGGTKLTVL
Take B7: in [1], the Kd amounted to 0.09 nM, the koff is 5.1e-05 s⁻¹ and the kon is 540000 M⁻¹ s⁻¹.

(Values after patent publication US20150086555A1.)
